# Legend:
# Histone H3.2 (human) = Histone H3.2 (human) (UniProt Q71DI3); experiment: in vivo azide-A-DSBSO XL-MS, HEK 293 cells
# Histone H4 (human) = Histone H4 (human) (UniProt P62805); experiment: in vivo azide-A-DSBSO XL-MS, HEK 293 cells
substance,measurement,setting,value
"Histone H2B (core histone, isoforms not told apart)",unique cross-linked peptides,Histone H3.2 (human),8 peptides
same,unique cross-linked peptides,Histone H4 (human),10 peptides

# Source: US20170082635A1
